# Data published in EP4763862A1 (Beijing Tide Pharmaceutical Co., Ltd., dated 2026).
# Residue numbers refer to the chain shown, from its start.
# T1: B7-H5 (UniProt Q9H7M9 33-194)
# T1 construct: The name B7-H5 is ambiguous in the literature; not shown: His tag
# T1 sequence (looked up): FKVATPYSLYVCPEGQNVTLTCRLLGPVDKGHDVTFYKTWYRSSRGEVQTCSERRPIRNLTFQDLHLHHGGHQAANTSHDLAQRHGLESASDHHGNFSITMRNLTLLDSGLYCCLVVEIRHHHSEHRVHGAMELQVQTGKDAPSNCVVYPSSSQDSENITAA
# T2: B7-2 (UniProt P42081 26-247, limits assumed)
# T2 construct: not shown: His tag
# T2 sequence (looked up): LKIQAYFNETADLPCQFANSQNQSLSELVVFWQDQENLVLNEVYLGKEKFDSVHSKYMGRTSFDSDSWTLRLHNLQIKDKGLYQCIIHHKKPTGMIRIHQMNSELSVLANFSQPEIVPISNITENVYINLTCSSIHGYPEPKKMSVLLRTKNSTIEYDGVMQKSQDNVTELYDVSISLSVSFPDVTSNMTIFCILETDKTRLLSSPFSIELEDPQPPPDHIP
# T3: PD-L2 (UniProt Q9BQ51 20-219)
# T3 construct: not shown: His tag
# T3 sequence (looked up): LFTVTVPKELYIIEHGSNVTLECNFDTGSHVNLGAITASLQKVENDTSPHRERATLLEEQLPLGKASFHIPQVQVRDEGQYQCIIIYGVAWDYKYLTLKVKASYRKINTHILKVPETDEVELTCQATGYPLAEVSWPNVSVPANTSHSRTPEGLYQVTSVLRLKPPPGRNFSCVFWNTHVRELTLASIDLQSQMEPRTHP
# T4: B7-H2 (UniProt O75144 19-258, limits assumed)
# T4 construct: not shown: His tag
# T4 sequence (looked up): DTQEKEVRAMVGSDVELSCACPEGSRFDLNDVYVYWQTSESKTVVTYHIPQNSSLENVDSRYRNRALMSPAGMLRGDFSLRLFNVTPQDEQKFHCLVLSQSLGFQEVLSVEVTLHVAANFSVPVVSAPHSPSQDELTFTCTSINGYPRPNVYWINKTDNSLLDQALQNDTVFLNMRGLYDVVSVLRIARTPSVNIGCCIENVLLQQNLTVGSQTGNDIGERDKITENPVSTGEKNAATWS
# T5: B7-H4 (UniProt Q7Z7D3 29-258, limits assumed)
# T5 construct: not shown: His tag
# T5 sequence (looked up): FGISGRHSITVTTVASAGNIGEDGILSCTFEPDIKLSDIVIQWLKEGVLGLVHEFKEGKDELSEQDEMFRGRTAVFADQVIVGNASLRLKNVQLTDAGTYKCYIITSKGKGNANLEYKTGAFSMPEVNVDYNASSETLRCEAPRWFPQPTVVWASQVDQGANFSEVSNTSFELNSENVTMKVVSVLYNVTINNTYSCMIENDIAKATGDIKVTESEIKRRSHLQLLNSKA
# T6: B7-H7 (UniProt Q9UM44 23-344)
# T6 construct: not shown: His tag
# T6 sequence (looked up): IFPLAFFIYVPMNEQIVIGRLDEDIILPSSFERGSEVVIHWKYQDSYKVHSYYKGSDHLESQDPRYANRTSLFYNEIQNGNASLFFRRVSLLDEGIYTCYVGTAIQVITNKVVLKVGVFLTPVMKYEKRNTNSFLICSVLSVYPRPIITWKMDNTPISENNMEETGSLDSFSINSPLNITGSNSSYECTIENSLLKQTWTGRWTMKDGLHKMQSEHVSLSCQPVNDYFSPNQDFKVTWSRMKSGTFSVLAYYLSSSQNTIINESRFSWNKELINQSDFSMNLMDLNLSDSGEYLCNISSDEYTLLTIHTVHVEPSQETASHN
# T7: B7-1 (UniProt P33681 35-242)
# T7 construct: not shown: His tag
# T7 sequence (looked up): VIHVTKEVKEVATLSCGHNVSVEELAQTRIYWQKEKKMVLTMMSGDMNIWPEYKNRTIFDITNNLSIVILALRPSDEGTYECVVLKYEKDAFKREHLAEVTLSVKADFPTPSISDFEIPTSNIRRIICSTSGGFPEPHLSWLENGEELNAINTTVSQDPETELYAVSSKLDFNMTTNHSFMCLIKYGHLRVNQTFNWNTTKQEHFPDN
# T8: B7-H6 (UniProt Q68D85 25-262)
# T8 construct: not shown: His tag
# T8 sequence (looked up): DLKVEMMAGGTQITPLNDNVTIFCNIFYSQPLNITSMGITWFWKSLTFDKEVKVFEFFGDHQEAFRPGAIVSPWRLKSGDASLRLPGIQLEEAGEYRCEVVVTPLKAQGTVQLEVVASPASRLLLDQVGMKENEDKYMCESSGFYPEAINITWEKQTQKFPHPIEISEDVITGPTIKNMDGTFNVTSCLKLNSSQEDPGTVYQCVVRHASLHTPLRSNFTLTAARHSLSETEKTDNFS
# T9: B7-H3 on NCI-H446 cells (UniProt Q5ZPR3 29-534)
# T9 construct: whole, on cells
# T9 sequence (looked up): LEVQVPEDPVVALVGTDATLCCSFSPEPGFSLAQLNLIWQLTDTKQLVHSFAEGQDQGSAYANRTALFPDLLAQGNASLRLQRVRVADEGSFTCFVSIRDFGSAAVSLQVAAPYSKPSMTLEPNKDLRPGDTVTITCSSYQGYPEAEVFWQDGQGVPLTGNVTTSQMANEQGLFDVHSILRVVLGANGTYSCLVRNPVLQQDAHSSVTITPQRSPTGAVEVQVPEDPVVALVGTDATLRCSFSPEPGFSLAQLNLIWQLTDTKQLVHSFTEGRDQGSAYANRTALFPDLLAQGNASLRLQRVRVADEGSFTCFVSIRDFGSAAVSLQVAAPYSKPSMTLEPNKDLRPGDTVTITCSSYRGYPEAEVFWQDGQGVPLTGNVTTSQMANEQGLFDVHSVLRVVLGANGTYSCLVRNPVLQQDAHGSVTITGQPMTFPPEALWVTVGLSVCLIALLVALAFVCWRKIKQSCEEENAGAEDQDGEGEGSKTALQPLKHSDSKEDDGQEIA
# B1: cAb1-z3-p7 (antibody, human IgG1, kappa, V domains shown)
# VH: EVQLVESGGGLVKPGGSLRLSCAASGFTFSSYGMSWVRQAPGKRLEWVSSISGSGSYTYYPDSLKGRFTISRDNAKNSLYLQMNSLRAEDTAVYYCARQQGYWYFDVWGQGTTVTVSS
# VL: DVVMTQTPLSLPVTPGEPASISCRASQSLASSYGKTYLSWYLQKPGQSPQLLIYGISNRFSGVPDRFSGSGSGTDFTLKISRVEAEDVGVYYCLHGTHQPLTFGQGTKLEIKR
# notes: Humanized from 48-B4-F4-E4; Human IgG1 / kappa; also called cAbl-z3-p7
# B2: cAb1-z5-p7 (antibody, human IgG1, kappa, V domains shown)
# VH: B1 VH with S49A
# VL: B1 VL
# notes: Humanized from 48-B4-F4-E4; Human IgG1 / kappa; also called cAbl-z5-p7
# B3: cAb1-z0-p7 (antibody, human IgG1, kappa, V domains shown)
# VH: B1 VH with R44G
# VL: B1 VL with V2I
# notes: Humanized from 48-B4-F4-E4; Human IgG1 / kappa
# Target: T10, B7-H3 Cyno-His (cynomolgus monkey)
# T10 construct: also called cynomolgus monkey B7-H3
# Assay: SPR, Biacore 8K, antibody captured by anti-human IgG Fc on CM5, B7-H3 Cyno-His as analyte, 1:1 model
Kd [nM],koff [s⁻¹],kon [M⁻¹ s⁻¹],Binder
3.87,5.82e-05,15100,B1
3.9,6.17e-05,15800,B2
7.86,7.68e-05,9770,B3

# Target: T1, B7-H5
# Assay: ELISA, His-tagged antigen coated at 1 µg/mL, HRP-Protein A detection
row,Binder,binding result
1,B1,no binding (tested: starting concentration 10 µg/ml)
2,B2,no binding (tested: starting concentration 10 µg/ml)
3,B3,no binding (tested: starting concentration 10 µg/ml)

# Target: T2, B7-2
# Assay: as above
row,Binder,binding result
1,B1,no binding (tested: starting concentration 10 µg/ml)
2,B2,no binding (tested: starting concentration 10 µg/ml)
3,B3,no binding (tested: starting concentration 10 µg/ml)

# Target: T3, PD-L2
# Assay: as above
row,Binder,binding result
1,B1,no binding (tested: starting concentration 10 µg/ml)
2,B2,no binding (tested: starting concentration 10 µg/ml)
3,B3,no binding (tested: starting concentration 10 µg/ml)

# Target: T11, hB7-H1 (PD-L1) (human, UniProt Q9NZQ7 19-238)
# T11 construct: Species read from the printed prefix h; not shown: His tag
# Assay: as above
# T11 sequence (Q9NZQ7 19-238 limits assumed): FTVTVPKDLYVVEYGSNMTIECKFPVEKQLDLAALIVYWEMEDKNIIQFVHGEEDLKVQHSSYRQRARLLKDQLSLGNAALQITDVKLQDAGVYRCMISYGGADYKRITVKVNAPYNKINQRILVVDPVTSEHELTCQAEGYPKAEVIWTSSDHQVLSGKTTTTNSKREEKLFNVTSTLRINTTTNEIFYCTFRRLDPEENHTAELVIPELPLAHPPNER
row,Binder,binding result
1,B1,no binding (tested: starting concentration 10 µg/ml)
2,B2,no binding (tested: starting concentration 10 µg/ml)
3,B3,no binding (tested: starting concentration 10 µg/ml)

# Target: T4, B7-H2
# Assay: as above
row,Binder,binding result
1,B1,no binding (tested: starting concentration 10 µg/ml)
2,B2,no binding (tested: starting concentration 10 µg/ml)
3,B3,no binding (tested: starting concentration 10 µg/ml)

# Target: T5, B7-H4
# Assay: as above
row,Binder,binding result
1,B1,no binding (tested: starting concentration 10 µg/ml)
2,B2,no binding (tested: starting concentration 10 µg/ml)
3,B3,no binding (tested: starting concentration 10 µg/ml)

# Target: T6, B7-H7
# Assay: as above
row,Binder,binding result
1,B1,no binding (tested: starting concentration 10 µg/ml)
2,B2,no binding (tested: starting concentration 10 µg/ml)
3,B3,no binding (tested: starting concentration 10 µg/ml)

# Target: T7, B7-1
# Assay: as above
row,Binder,binding result
1,B1,no binding (tested: starting concentration 10 µg/ml)
2,B2,no binding (tested: starting concentration 10 µg/ml)
3,B3,no binding (tested: starting concentration 10 µg/ml)

# Target: T8, B7-H6
# Assay: as above
row,Binder,binding result
1,B1,no binding (tested: starting concentration 10 µg/ml)
2,B2,no binding (tested: starting concentration 10 µg/ml)
3,B3,no binding (tested: starting concentration 10 µg/ml)

# Target: T9, B7-H3 on NCI-H446 cells
# Assay: flow cytometry on NCI-H446 cells, goat anti-human Fc secondary
row,EC50 [nM],Binder
1,4.66,B1
2,3.69,B2
3,9.7,B3
